From patent US20260083853A1, “CD70 ANTIBODY DRUG CONJUGATES AND METHODS OF USING THE SAME” (Genmab A/S, priority 2022, published 2026)

Legend:
[1] = biological target: T1, Human CD70 on CD70-expressing human tumor cell lines (Raji, 786-O, Caki-1) (human, UniProt P32970 1-193); test: flow cytometry on Raji cells, detection with PE-conjugated anti-human Fc, MFI(PE)
T1 construct: whole, on cells; Endogenous CD70 on the cells; also called human CD70-expressing cell lines; CD70-positive cell lines 786-O, Raji and Caki-1
T1 sequence (looked up): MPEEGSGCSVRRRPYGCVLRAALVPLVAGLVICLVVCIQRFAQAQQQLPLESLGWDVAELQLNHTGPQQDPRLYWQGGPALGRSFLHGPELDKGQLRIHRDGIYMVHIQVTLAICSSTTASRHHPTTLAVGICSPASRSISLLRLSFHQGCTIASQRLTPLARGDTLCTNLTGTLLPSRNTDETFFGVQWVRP
Procedure: (§1) The binding activity of 2E7 antibody or 2E7-LD038 ADC was evaluated by Flow cytometric analysis (Beckman, Cytoflex) with target-expressing cell lines, Raji, 786-O, Caki-1, and a cell line with negligible CD70 expression, MCF-7. 3×10⁵ cells were seeded per well at 96-well v-bottomed plate and incubated with 100 μl of 2E7 or 2E7-LD038 in serial dilutions. After 30 minutes of incubation at 4° C., cells were washed twice with PBS, stained with 100 μl of 1:200 diluted PE-conjugated anti human Fc in FACS buffer (1×PBS containing 1% BSA) and then incubated at 4° C. for 30 minutes. After that the cells were washed 2 times with PBS and analyzed by Flow cytometric analysis.

[2] = biological target: T1, Human CD70 on CD70-expressing human …; test: flow cytometry on 786-O cells, detection with PE-conjugated anti-human Fc, MFI(PE)
Procedure: as §1

[3] = biological target: T1, Human CD70 on CD70-expressing human …; test: flow cytometry on Caki-1 cells, detection with PE-conjugated anti-human Fc, MFI(PE)
Procedure: as §1

[4] = biological target: T2, Recombinant mouse CD70 extra-cellular domain (ECD) linked to His tag (mouse, UniProt O55237 45-195); test: BLI (Octet RED), antibody on anti-human IgG Fc tips, CD70 ECD-His in solution 200 to 3.13 nM
T2 construct: extracellular domain; Purchased or made in house; not shown: His tag
T2 sequence (looked up): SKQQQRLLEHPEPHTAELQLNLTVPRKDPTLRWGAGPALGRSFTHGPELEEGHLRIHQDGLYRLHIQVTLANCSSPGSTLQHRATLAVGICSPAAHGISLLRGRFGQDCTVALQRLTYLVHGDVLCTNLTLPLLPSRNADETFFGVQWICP
Procedure: (§2) Recombinant proteins consisting of the CD70 extra-cellular domain (ECD) linked to His tag were either purchased (from KACTUS or ACRO biosystems) or synthesized in house. 2E7 antibody or 2E7-LD038 conjugate (20 nM) was immobilized on anti-human IgG Fc biosensor tips (Fortebio). Binding assays using varying concentration from 200 nM down to 3.13 nM of recombinant protein in solution were performed using Octet RED (Fortebio). Association time was set at 180 seconds and dissociation time was set at 300 seconds. Binding affinity was calculated using ForteBio Data Acquisition 6.3 software (ForteBio). Affinity was derived by fitting the kinetic data to a 1:1 Langmuir binding model utilizing global fitting algorithms.

[5] = biological target: T3, Recombinant human CD70 extra-cellular domain (ECD) linked to His tag (human, UniProt P32970 39-193); test: BLI (Octet RED), antibody on anti-human IgG Fc tips, CD70 ECD-His in solution 200 to 3.13 nM, 1:1 global fit
T3 construct: extracellular domain; Purchased (KACTUS or ACRO biosystems) or made in house; also called human CD70 protein; not shown: His tag
T3 sequence (looked up): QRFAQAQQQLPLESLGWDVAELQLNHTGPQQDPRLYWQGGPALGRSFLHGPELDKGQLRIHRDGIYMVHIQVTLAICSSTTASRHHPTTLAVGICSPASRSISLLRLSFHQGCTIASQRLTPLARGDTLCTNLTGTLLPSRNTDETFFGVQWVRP
Procedure: as §2

[6] = biological target: T4, Recombinant cynomolgus monkey CD70 extra-cellular domain (ECD) linked to His tag (cynomolgus monkey, UniProt A0A2K5WTU9 39-190); test: as above
T4 construct: extracellular domain; Purchased or made in house; also called Cyno CD70; not shown: His tag
T4 sequence: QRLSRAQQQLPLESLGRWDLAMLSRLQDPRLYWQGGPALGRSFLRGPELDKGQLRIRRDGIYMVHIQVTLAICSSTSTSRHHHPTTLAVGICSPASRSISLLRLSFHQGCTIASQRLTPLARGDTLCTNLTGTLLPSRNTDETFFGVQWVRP
Procedure: as §2

[7] = biological target: T1, Human CD70 on CD70-expressing human …; test: flow cytometry blocking assay on Raji cells; blocked ligand: biotinylated human CD27 at 30 ug/ml, detection with PE-conjugated streptavidin
Procedure: (§3) CD70-positive cell lines 786-O, Raji and Caki-1 were mixed with varying concentrations from 333.5 nM down to 6 nM of 2E7-LD038 conjugate, or 2E7 antibody, or negative binding control (B12), and incubated at 4° C. for 30 minutes. Cells were washed twice with PBS and then incubated with 30 µg/ml biotinylated human CD27 (the receptor for CD70) at 4° C. Staining was done using PE-conjugated streptavidin for 30 minutes and fluorescence was measured using flow cytometer.

[8] = biological target: T1, Human CD70 on CD70-expressing human …; test: flow cytometry blocking assay on 786-O cells; blocked ligand: biotinylated human CD27 at 30 ug/ml, detection with PE-conjugated streptavidin
Procedure: as §3

[9] = biological target: T1, Human CD70 on CD70-expressing human …; test: flow cytometry blocking assay on Caki-1 cells; blocked ligand: biotinylated human CD27 at 30 ug/ml, detection with PE-conjugated streptavidin
Procedure: as §3

[10] = biological target: T2, Recombinant mouse CD70 extra-cellular …; test: BLI (Octet RED), conjugate on anti-human IgG Fc tips, CD70 ECD-His in solution 200 to 3.13 nM
Procedure: as §2

[11] = biological target: T3, Recombinant human CD70 extra-cellular …; test: BLI (Octet RED), conjugate on anti-human IgG Fc tips, CD70 ECD-His in solution 200 to 3.13 nM, 1:1 global fit
Procedure: as §2

[12] = biological target: T4, Recombinant cynomolgus monkey CD70 …; test: as above
Procedure: as §2

[13] = Hydrophobic interaction chromatography (HIC) of anti-CD70 antibodies; assay type: physicochemical; details: for Retention time (hydrophobicity): TSK gel Butyl-NPR
Procedure: Antibodies were purified from cleared cell culture supernatants using Protein A chromatography (Protein A resin slurry, 4.5 mL, Bogen, Cat #18-0010-02). Briefly, supernatants were prepared for affinity chromatography and loaded onto the columns and allowed to flow completely through the resin. The columns were washed with binding buffer containing 0.15M NaCl and 0.2M PB, PH7.0. Antibody was eluted with elution buffer containing 0.15M NaCl, 0.1M Glycine and 0.2M PB, PH 3.0. Fractions were collected and neutralized by the addition of 1/10 volume of 1M Tris, PH9.0. The fractions were dialyzed for 2 hours against 1×PBS. Purified antibody was quantified by absorbance at A280. Samples from each step of the protein A chromatography were applied onto 12% SDS-PAGE gels for reduced and non-reduced electrophoresis. The hydrophobicity was assessed with hydrophobic interaction chromatography (HIC) on a TSK gel Butyl-NPR, 4.6×100 mm with Butyl-NPR (Tosoh corporation) using a Waters HPLC 2695 system.

B1: 2E7 antibody (antibody, human IgG1, kappa, V domains shown)
VH: QVQLQESGPGLVKPSETLSLTCTVSGGSVSSDYYYWSWIRQPPGKGLEWLGYIYYSGSTNYNPSLKSRVTISVDTSKNQFSLKLRSVTTADTAVYYCARGDGDFLGVCFDYWGQGTLVTVSS
VL: EIVLTQSPATLSLSPGERATLSCRASQSVSSYLAWYQQKPGQAPRLLIFDASNRATGIPARFSGSGSGTDFTLTISSLEPEDFAVYYCQQRSNWPLTFGGGTKVEIKR
notes: Made in ExpiCHO-S cells and purified on Protein A; also called Ab 2E7; parental mAb (2E7)
[1]
  EC50: 19.9 nM
[2]
  EC50: 2.81 nM
[3]
  EC50: 1.59 nM
[4]
  binding result: no binding (tested: 200 nM)
[5]
  Kd: 0.807 nM
  koff: 0.000254 s⁻¹
  kon: 314000 M⁻¹ s⁻¹
[6]
  Kd: 0.39 nM
  koff: 0.000241 s⁻¹
  kon: 618000 M⁻¹ s⁻¹
[7]
  IC50: 8.78 nM
[8]
  IC50: 6.24 nM
[9]
  IC50: 7.04 nM

B2: 2E7-LD038 conjugate (antibody, human IgG1, kappa, DAR 8, V domains shown)
VH: QVQLQESGPGLVKPSETLSLTCTVSGGSVSSDYYYWSWIRQPPGKGLEWLGYIYYSGSTNYNPSLKSRVTISVDTSKNQFSLKLRSVTTADTAVYYCARGDGDFLGVCFDYWGQGTLVTVSS
VL: EIVLTQSPATLSLSPGERATLSCRASQSVSSYLAWYQQKPGQAPRLLIFDASNRATGIPARFSGSGSGTDFTLTISSLEPEDFAVYYCQQRSNWPLTFGGGTKVEIKR
modifications: Drug-Linker LD038 (PB038; PEG unit, cleavable linker, exatecan) attached to cysteines after TCEP reduction; DAR8 for the whole antibody; residues not stated
notes: The constant regions are tied to 2E7 by claim 120; also called PA038; ADC PA038
[1]
  EC50: 26.4 nM
[2]
  EC50: 2.16 nM
[3]
  EC50: 1.45 nM
[10]
  binding result: no binding (tested: 200 nM)
[11]
  Kd: 0.12 nM
  koff: 5.45e-05 s⁻¹
  kon: 456000 M⁻¹ s⁻¹
[12]
  Kd: 0.144 nM
  koff: 9.4e-05 s⁻¹
  kon: 652000 M⁻¹ s⁻¹
[7]
  IC50: 11.6 nM
[8]
  IC50: 7.35 nM
[9]
  IC50: 8.03 nM

B3: 2A4: anti-CD70 clone with "at least two more amino acid substitutions in HCDR3/LCDR3" "compared with the parent antibody 69A7" (antibody, V domains shown)
VH: QVQLQESGPGLVKPSETLSLTCTVSGGSVSSDYYYWSWIRQPPGKGLEWLGYIYYSGSTNYNPSLKSRVTISVDTSKNQFSLKLRSVTTADTAVYYCARGDGDYGGNVFPYWGQGTLVTVSS
VL: EIVLTQSPATLSLSPGERATLSCRASQSVSSYLAWYQQKPGQAPRLLIFDASNRATGIPARFSGSGSGTDFTLTISSLEPEDFAVYYCQQRSNWPLTFGGGTKVEIK
[13]
  Retention time (hydrophobicity): 9.06 min

B4: 1H8: anti-CD70 clone with "at least two more amino acid substitutions in HCDR3/LCDR3" "compared with the parent antibody 69A7" (antibody, V domains shown)
VH: QVQLQESGPGLVKPSETLSLTCTVSGGSVSSDYYYWSWIRQPPGKGLEWLGYIYYSGSTNYNPSLKSRVTISVDTSKNQFSLKLRSVTTADTAVYYCARGDGDFMGVCFDYWGQGTLVTVSS
VL: EIVLTQSPATLSLSPGERATLSCRASQSVSSYLAWYQQKPGQAPRLLIFDASNRATGIPARFSGSGSGTDFTLTISSLEPEDFAVYYCQQRSNWPLTFGGGTKVEIK
[13]
  hydrophobicity compared with parent antibody 69A7: slightly more hydrophobic than the parent antibody
  Retention time (hydrophobicity): 10.24 min

B5: 2D2: anti-CD70 clone with "at least two more amino acid substitutions in HCDR3/LCDR3" "compared with the parent antibody 69A7" (antibody, V domains shown)
VH: QVQLQESGPGLVKPSETLSLTCTVSGGSVSSDYYYWSWIRQPPGKGLEWLGYIYYSGSTNYNPSLKSRVTISVDTSKNQFSLKLRSVTTADTAVYYCARGDGDYGGNCFDYWGQGTLVTVSS
VL: EIVLTQSPATLSLSPGERATLSCRASQSVSSYLAWYQQKPGQAPRLLIFDASNRATGIPARFSGSGSGTDFTLTISSLEPEDFAVYYCQQRLKFPLTFGGGTKVEIK
[13]
  Retention time (hydrophobicity): 8.81 min
